B1: LgBiT-TBK1 (enzyme)
chain: MQSTSNHLWLLSDILGQGATANVFRGRHKKTGDLFAIKVFNNISFLRPVDVQMREFEVLKKLNHKNIVKLFAIEEETTTRHKVLIMEFCPCGSLYTVLEEPSNAYGLPESEFLIVLRDVVGGMNHLRENGIVHRDIKPGNIMRVIGEDGQSVYKLTDFGAARELEDDEQFVSLYGTEEYLHPDMYERAVLRKDHQKKYGATVDLWSIGVTFYHAATGSLPFRPFEGPRRNKEVMYKIITGKPSGAISGVQKAENGPIDWSGDMPVSCSLSRGLQVLLTPVLANILEADQEKCWGFDQFFAETSDILHRMVIHVFSLQQMTAHKIYIHSYNTATIFHELVYKQTKIISSNQELIYEGRRLVLEPGRLAQHFPKTTEENPIFVVSREPLNTIGLIYEKISLPKVHPRYDLDGDASMAKAITGVVCYACRIASTLLLYQELMRKGIRWLIELIKDDYNETVHKKTEVVITLDFCIRNIEKTVKVYEKLMKINLEAAELGEISDIHTKLLRLSSSQGTIETSLQDIDSRLSPGGSLADAWAHQEGTHPKDRNVEKLQVLLNCMTEIYYQFKKDKAERRLAYNEEQIHKFDKQKLYYHATKAMTHFTDECVKKYEAFLNKSEEWIRKMLHLRKQLLSLTNQCFDIEEEVSKYQEYTNELQETLPQKMFTASSGIKHTMTPIYPSSNTLVEMTLGMKKLKEEMEGVVKELAENNHILERFGSLTMDGGLRNVDCL

Target: ALTO with a NanoBiT tag at its N-terminus (Merkel cell polyomavirus)
Test: split reporter (BiFC, NanoBiT); NanoBiT in live HEK293 cells, 50 ng LgBiT + 50 ng SmBiT plasmid, 20-24 hours after transfection, NanoGlo reagent, luminescence; an interaction counts when the reading is tenfold above the LgBiT construct with the SmBiT negative control

Molecule | luminescence against the LgBiT-tagged construct with the SmBiT negative control [fold]
STING-LgBiT (from UniProt Q86WV6 1-379) (natural protein) | > 10
B1 | > 10
